Patent publication US20140193915, “COMPOSITIONS AND METHODS FOR CUSTOM SITE-SPECIFIC DNA RECOMBINASES” (Monsanto Technology, LLC, published 2014)

Target: T1, sN-TALER III-1 (synthetic)
T1 chain: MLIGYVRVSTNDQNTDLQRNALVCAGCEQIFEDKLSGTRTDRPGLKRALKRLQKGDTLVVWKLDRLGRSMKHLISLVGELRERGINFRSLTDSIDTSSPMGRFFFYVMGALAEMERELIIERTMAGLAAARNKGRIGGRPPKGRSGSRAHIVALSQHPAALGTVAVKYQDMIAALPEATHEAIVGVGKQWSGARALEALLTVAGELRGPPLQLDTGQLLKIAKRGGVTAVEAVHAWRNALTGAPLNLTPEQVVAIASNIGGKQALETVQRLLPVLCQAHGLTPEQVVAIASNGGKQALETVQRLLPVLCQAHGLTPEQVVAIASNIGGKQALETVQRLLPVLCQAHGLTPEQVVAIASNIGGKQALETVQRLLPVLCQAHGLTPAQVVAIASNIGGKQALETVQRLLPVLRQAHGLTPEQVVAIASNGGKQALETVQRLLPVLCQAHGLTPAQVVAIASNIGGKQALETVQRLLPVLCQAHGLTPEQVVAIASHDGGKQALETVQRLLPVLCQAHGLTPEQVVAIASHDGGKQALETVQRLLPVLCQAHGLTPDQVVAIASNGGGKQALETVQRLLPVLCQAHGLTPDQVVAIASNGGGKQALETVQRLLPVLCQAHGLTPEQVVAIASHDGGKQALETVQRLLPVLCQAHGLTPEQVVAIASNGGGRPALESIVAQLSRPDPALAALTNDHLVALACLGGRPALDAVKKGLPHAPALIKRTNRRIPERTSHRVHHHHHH
Test: cell_activity; E. coli
Settings: tags: 6-His
Method in brief: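 DH5alpha cells co-transformed (heat shock or electroporation) with N-TALER expression and reporter plasmids at ~1:1 mass ratio; reporter alone as control. Plated on chloramphenicol/kanamycin/X-gal, grown 37° C. for 18 to 36 hours; recombination scored by colony colour.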

B1: Gin18TALE+0 (dsDNA)
DNA 1: AGAAGGTATTTATACCAAAACCATGGTTTACATATAAATACCTTCT
DNA 2: AGAAGGTATTTATATGTAAACCATGGTTTTGGTATAAATACCTTCT
  activity: 4.5 score
